Measured values from the supplement of paper PMC10201428.
± gives the standard deviation of the averaged measurements.

Columns and labels:
[1] = test system: VchCAST RNA-guided transposition machinery (E. coli BL21(DE3) host, lacZ target); experiment: relative integration efficiency (T-LR orientation) vs wild-type transposon end (log2 (normalized fold change)); transposon end mutated: left end; higher = more efficient transposition
Summary of the method: (§1)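 In E. coli BL21(DE3), a T7-driven effector plasmid was paired with a pUC57 mini-transposon donor containing 1549 left-end or 1849 right-end barcoded transposon variants. Cells grew on plates with 0.1 mM IPTG at 37°C for 18 h. Relative integration efficiency was derived from Illumina reads of genomic integration junctions against input plasmids, as a log-transformed output/input barcode fold change normalised to reference barcodes.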

[2] = test system: VchCAST RNA-guided transposition machinery (E. coli BL21(DE3) host, lacZ target); experiment: relative integration efficiency (T-RL orientation) vs wild-type transposon end (log2 (normalized fold change)); transposon end mutated: left end; higher = more efficient transposition
Summary of the method: as §1

| Sequence | relative integration efficiency (log2) [1] | relative integration efficiency (log2) [2] |
| --- | --- | --- |
| AATGTTGTTGATGTGTTGCAACCATAAAGTGATATTTAATAATTATTTATAATCAGCAACTTAACCACAAAACAACCATATATTGATATCTCACAAAACAACCATAAGTTGATATTTTTGTGAATCGAGTATTTCAGCAAAACTACTGCAGT | < -10 | -6.86 ± 1.7 |
| AATGTTGTTGCAACCATAAAGTGATATTTAATAATTATTTATAATCAGCAACTTAACCACAAAACAACCATATATTGATATCTCACAAAACAACCATAAGTTGATATTTTTGTGAATCGAGTATTTCAGCAAAACTACTGCAGTAAGAAAGT | -1.44 ± 0.11 | -0.203 ± 0.26 |
| TTTTGTGTTGAAACAACCATAAAGTGATAACAAATAATTATTTATAATCAGCAACTTAACCACAAAACAACCATATCTTGATATCGCATAAAACAACCATAAGTTGATATTTTGGTGAAAAGGATATTCCAACCTTCATAGTTTAGTAAGAA | -1.23 ± 0.8 | -0.416 ± 0.29 |
| TTTTGTGTTGAAACAACCATAAAGTGATAACAACGAATCAATTAAAATCATAGGCTTAATCGAAAAACAACCATATATTGATATCTCATAAAACAACCATAAGTTGATATTTTGGTGAAAAGGATATTCCAACCTTCATAGTTTAGTAAGAA | 0.0938 ± 0.43 | 0.184 ± 0.29 |
| TTTTGTGTTGAAACAACCATAAAGTGATAACAACGAATCAATTAAAATCATAGGCTTAATCGAAAAACAACCATATCTTGATATCGCACAAAACAACCATAAGTTGATATTTTGGTGAAAAGGATATTCCAACCTTCATAGTTTAGTAAGAA | -0.749 ± 0.52 | -0.684 ± 0.39 |
| TTTTGTGTTGAAACAACCATAAAGTGATAACAACGAATCAATTAAAATCATAGGCTTAATCGAAAAACAACCATATCTTGATATCGCATAAAACAACCATAAGTTGATATTTTGGTGAAAAGGATATTCCAACCTTCATAGTTTAGTAAGAA | -0.599 ± 0.63 | -0.363 ± 0.32 |
| TTTTGTGTTGAAACAACCATAAAGTGATAACAACGAATCAATTAAAATCATAGGCTTAATCGAAAAACAACCATATCTTGATATCGCATAAAACAACCATAAGTTGATATTTTGGTGAAACGAGTATTTCAGCAAAACTACTGCAGTAAGAA | -1.04 ± 0.28 | -0.949 ± 0.35 |
| TTTTGTGTTGAAACAACCATAAAGTGATAACAACGAATCAATTAAAATCATAGGCTTAATCGAAAAACAACCATATCTTGATATCGCATAAAACAACCATAAGTTGATATTTTTGTGAATAGGATATTCCAACCTTCATAGTTTAGTAAGAA | -0.791 ± 0.29 | 0.192 ± 0.22 |
| TTTTGTGTTGAAACAACCATAAAGTGATATTTACGAATCAATTAAAATCATAGGCTTAATCGAAAAACAACCATATCTTGATATCGCATAAAACAACCATAAGTTGATATTTTGGTGAAAAGGATATTCCAACCTTCATAGTTTAGTAAGAA | -0.00585 ± 0.47 | 0.179 ± 0.12 |
| TTTTGTGTTGATGCAACCATAAAGTGATAACAACGAATCAATTAAAATCATAGGCTTAATCGAAAAACAACCATATCTTGATATCGCATAAAACAACCATAAGTTGATATTTTGGTGAAAAGGATATTCCAACCTTCATAGTTTAGTAAGAA | -0.426 ± 0.46 | -0.528 ± 0.32 |
